Source: article PMC11321297 (Cell Insight, 2024)

Target: the molecule itself
Test: cross-linking

B1: His-GLUD1^K84R (enzyme)
chain: not shown
stoichiometry N: 6
